Experimental data taken from the DeepSol protein solubility set.

Experiment: soluble on expression in E. coli; label from the status in PepcDB or PDB records

| Sequence | soluble on expression in E. coli |
| --- | --- |
| MEPWLVGIDLGGTTIKMAFVTTEGDIVHKWEIPTNTANRGEHIVADIARSLEKTLGQLGGAKERLLAAGIGAPGPVEEETGMLYETVNIGWTNYPLKQRLEEATGLPVSVDNDANLAALGEMWKGAGGGARHLLFVTLGTGVGGGVIANGAIVRGINGAGGEIGHMTMIPDGGARCNCGKTGCLETIASATGIVRIAKEKLTADERPSELRNGDVTAKAVFDAAKAGDALALEVVDEATYYLGWALANAANVTNPEKIVIGGGVSKAGDMLVERVAAHFRRFAFPRVAAGAKLVLATLGNDAGVIGAAWLAKELVGA | not soluble |
| MGSDKIHHHHHHMELDILDALGEGWTLTPAGGITGEAYIASTGQSKLFLKRNSSPFLAILSADGIVPKLLWTKRIYSGDVISAQQFIEGQELEPEMMERPEVARLLGKIHDSKELLFMLQQLDQRPIEPDELLRQCRLYFQPAELAQPELIEQAIDYLSERLPYVRTDEQVVCHSDLNHNNWLVGTDGHLYLNDWDDAIIADRAYDLGMMLYSYVDEECWPEWFAHYGHPLTKDLKQRMYWYVVAQAVLSIYWYEDTMHPDATESYLFLAQLLEMEQED | not soluble |
| SFLNGNCLETLKKKEPEGGRRRLSHPGNMGWMRPSQETTPPDRSHHSGFGLFCGDPGPEIEPFSLWVFPQEMVLEIHQLFMDHEYPCHHITSHCTWVAAHWTTSQSCAAWQGCRRACCSTWWKSPAQCTRPTVMSATFETAQEPGPS | soluble |
| MGSDKIHHHHHHMSEGCAFAYPFIFVGANMKKIAFIGECMIELNGKPFGEMWQSYGGDTLNSATYLSRMSSPNDIQVYYVSALGSDNLSEQMRMHWQADGVNTDWVLKDENHQPGLYLIQLDEQGERTFLYWRNQSAAHYMVQHHDFSQVLSALEQVDMIYLSGISLAILPKNDRTFLLEQLIKLAKKGVQISFDSNFRPKLWDSFQEAQDCYLQLLPCVSLALVTFDDEQLLWNDTNEPATLTRLHQIGIPKVVVKCGRNGAIFSDSQTSQYGQVVPKPISNVVDTTSAGDSFNAGFLNGYLRNKPLDICCRQGNYVAGIVIQHKGAIIDKHATSHLQSEFN | not soluble |
| AIASERLYYFVIVGRDDRVLYDLLYPASLSELDWRTSSELSSPAERGDFEPHHFIPSIQVLLQFVAYSALDHIEEKYWLTSARSLKHIFRFRDWSASVQLTPNAATRFVLVHGASDDASRNVRAFLHAVYEAYVPHVVCNPFQEEDAPITSKRFHEVAKNLAKRYFSG | soluble |
| MGSDKIHHHHHHMLEFTKRSLMNKYNINERVLELYERALNDVEKEFKYYDEIREYNQLKVLKAFQEERISESHFTNSSGYGYNDIGRDSLDRVYANIFNTESAFVRPHFVNGTHAIGAALFGNLRPNDTMMSICGMPYDTLHDIIGMDDSKKVGSLREYGVKYKMVDLKDGKVDINTVKEELKKDDSIKLIHIQRSTGYGWRKSLRIAEIAEIIKSIREVNENVIVFVDNCYGEFVEEKEPTDVGADIIAGSLIKNIGGGIATTGGYIAGKEEYVTQATFRVTVPGIGGECGSTFGVMRSLYEGLFMAPHVTIEAVKGAVFCARIMELAGFDVLPKYNDKRTDIIQAIKFNDEKKLIDFIKGIQTASPVDSFVQCEAWDMPGYEDKVIMAAGTFVQGASIELSADAPIREPYIGYLQGGLTFDHAKLGVLIALSKLIM | not soluble |
| MAHHHHHHMQYVERLFSAYGHVADVKIVFEGSVQFAEVMYNAVDDADSAIAALHHHYCASRNTPLVVLYHVRSPCISEYGRKVGREYAQAAALGRDPSYIPLEGFDENYPRTDVPPPPSDREIFEGARWNDSSGPAGEGRLHSY | not soluble |
| MSHAVTIEEPQAQPQVSQTRYRERSRAGSHISSNRAYDFLYDPLFIVSSEKDHTQANIQATLIRSRLRKVPRFKTMFSNLIHYPRYSLYWSKSDPVPPFISREWKGHKEKHREALRQLTTTDASFQMPKEVYEDPEVTGKNRYKYFERPFLPFFQQMPFNVVYAVSKAEPYTFPPTSTKHLSIPSKSTVGTQTDYRDADVQTDPYSPEYVVCQDSIPELLTLATLTWGRGLPAGQAEVEMIERAREKRAWEASLPALSDTSQFEKRRKMMNEMERKEWAFREQEIEKLQEIRLEVLKELLRKREENQNEVNMKHLNARWSKLQEGKEAKMAVIYLQKLLRGRVIQNMMFEGKEKRLELIQELRTCHALQEDEKLVKKAEKQVTLALQRQRNLHEHKVSLVENHLAGLEGRALADMFDFLSKELVRLQEERRIHAFVMLAERQRRVREAEESGRRQVEKQRLREEDEIFKEVVKVHHSTISSYLEDIILNTEANTAEEQARAEIEKMAEKINDIAYEMESRRTYLQSEEIVAELVYSFLIPEVQKYFVKEKVRNAQRKHILAAHQIIHSYTESMVQKKLTEGEQDEASNAAMLLEKETQNENNS | not soluble |
| LLEKHGVVVRSSNYELYADLSERMMNVIGRFCDNQYIYSIDESFLYFDHYESCINDWHEYGHKIRKAIWKETRLPVGVGFGETATLSKAANHAAKKLSGFN | not soluble |
| MADDEDDIVWIREDTAQSSVPTSPTTPATIIEAAPVLSDAFDKPILKSVETISVSNGPPEVTISAPPPTPPAAPLAPQITPMVLSTVPDAAPAQDIPALILAALAPEPVPEPEPEVEAKQNVIVEKENEIKDQQQNDQLSAKLDPKTPNSVDDNSMSFDISECERKFNTAIREANDILEDFDKKSKQVAENTKFVAKELAELAADAPRVFQKTIEDHSQVPEISELPSGGLPKNVESVLIGEGILEEITGTLVLPTGQVLVTDERVGILLFNLEGDVLAKINPADFRKLWSPVYHKEHILVLADAKNAENHWSRHVIKFTCQLEYVAKIECPSWLAECTILRERLSIAHNDHLYLCVCGEIFSGIYELTPIGQWTELEYKLSEAYIDMLAFATIGPITQLLVVEGRRNYVLLVSVRESRIVDRKRMAICERPGALAKDEAGRLFVSNRFSASIQLVDTMRWVSEKNVAITEAFVRHFTACWGLLAIPLKNAVRLQRYSFRSLR | not soluble |
| MSLEHFDDKSQLKRNGFYFSYNVDKENIEHWISAILFQVLKDKEDIVILSLGVDTLVGDSLGPLVGSILKRNGIPNVYGTLDRTVNASNIIKILDEIHERFKNPYILVVDAAVTAENNINDIVLRNGGFTPGFGVYRQLPTVGDFSLVGVVNKEDEREHNLIELLKKCRFDEVLKLARIISKILVLTFARMNKGDKEGHHHHHH | not soluble |
| MAKKRGKPEIDWTDDDKEIIWVSKSEIKRDSEHLKKLGAELIELTPQNLEKIPLDEDLKYAIRQAQSFKLEARRRQIQFIGKLLRNRDSAPIQDALDKVKNRHNQQQALLHKLELIRDQLINMGDASLNQLLSEYPQLDRQHLRNLIRMAQKEKQINKPAKNYHEILQYLKSELIV | not soluble |
| MIASKMPREVRLPSFQIEIIGAMSTYKIYCQSLLPLSHSALLIMVAPSFPLLNLPEKSLKEVFCNMSVVQQTCISMISEKTKNLVRKFHIFKQVQIWLDFSDSLRCYMSLKGISLSIWHTPMWH | not soluble |
| MSRISVENVKHVAHLARLAITDQEAEKFQKQLDAIVTFAEQLNELDTTDVKPTTHVLTMKNVMREDVPEKGLPVEEVLKNAPDHKDNQIRVPAVLE | not soluble |
| MSTDSTNYAAKHESLGKSVQRELQKTQSQLRQVVRKMQSKYNINNKARVAEISLLRQMQSQFSRKYVNKNLGNSNTLAQQGSYTKKDGTTAQAGDLLLAADNLHSRLTDKMLSISHVRENTISPFVLGCLKQITINAYHYLK | not soluble |
| MTLHKERRIGRLSVLLLLNEAEESTQVEELERDGWKVCLGKVGSMDAHKVIAAIETASKKSGVIQSEGYRESHALYHATMEALHGVTRGEMLLGSLLRTVGLRFAVLRGNPYESEAEGDWIAVSLYGTIGAPIKGLEHETFGVGINHI | soluble |
| MRGASGGMIQCQYEVHISKNDTYSMDRPHFHEDIEIVLCIAGEGVFFLEPEVFPLYRGQLFLIDSSILHRSVANEEYRCMVFHISSEMLHEFSSLQSNFQARSKRSGLVATLTEEATKYLESLYGKLAEDFGNEFGGDIRQTITLLTFLLTCFSHFNEAEDGEVHTNPSLDKVAPILTYIQEHLGEAMTTQSIADAFYMSKYHLCHIFKEGTGFSLMDYVINCRILKARSLLRNGMRVQEVGENVGFRNNEHFIRTFKKLTGTPPKRYAMMYKDSDQNAQRELVVVEGKDGKIIEGIKA | not soluble |
